According to US20150344570A1 (published 2015):
Changes are numbered by the printed parent chain. Names and notes keep the numbering of the source.

T1: FcgRIIaR (human, UniProt P12318 34-217)
T1 construct: extracellular domain; Allotype R131; also called FcγRIIa R; FcgRIIa type R; not shown: His tag attached to the C terminus
T1 sequence (looked up): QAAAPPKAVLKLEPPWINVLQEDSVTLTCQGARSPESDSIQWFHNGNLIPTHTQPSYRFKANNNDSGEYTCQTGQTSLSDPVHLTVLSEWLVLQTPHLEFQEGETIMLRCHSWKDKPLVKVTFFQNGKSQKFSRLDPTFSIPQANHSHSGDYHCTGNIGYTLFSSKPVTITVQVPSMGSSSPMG

T2: FcgRIIaH (human, UniProt P12318 34-217)
T2 construct: extracellular domain; Allotype H131; also called FcγRIIa H; FcgRIIa type H; not shown: His tag attached to the C terminus
T2 sequence (looked up): T1 sequence (looked up) with R134H

T3: FcgRIIb (human, UniProt P31994 43-217)
T3 construct: extracellular domain; also called FcγRIIb; CD32B; not shown: His tag attached to the C terminus
T3 sequence (looked up): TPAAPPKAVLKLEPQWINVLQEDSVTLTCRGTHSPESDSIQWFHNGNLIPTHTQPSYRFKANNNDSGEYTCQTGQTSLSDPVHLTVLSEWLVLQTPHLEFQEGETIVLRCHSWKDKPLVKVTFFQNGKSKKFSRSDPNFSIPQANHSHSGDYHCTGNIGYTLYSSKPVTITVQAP

T4: FcγRIIb extracellular domain with C-terminal His tag (human, UniProt P31994 43-217)
T4 construct: extracellular domain; Soluble receptor expressed in FreeStyle293 cells and used as analyte in Biacore; also called FcgRIIb; 2b; not shown: His tag at the C terminus
T4 sequence (looked up): T3 sequence (looked up)

B1: GpH7-A5/GpH7-B3 variant I336_19Q/GpL16-k0 (antibody, human IgG1, kappa)
heavy 1: not shown
heavy 2: not shown
light: DIVMTQSPLSLPVTPGEPASISCQASESLVHSNRNTYLHWYLQKPGQSPQLLIYKVSNRFSGVPDRFSGSGSGTDFTLKISRVEAEDVGVYYCSQNTHVPPTFGQGTKVEIERTVAAPSVFIFPPSDEQLKSGTASVVCLLNNFYPREAKVQWKVDNALQSGNSQESVTEQDSKDSTYSLSSTLTLSKADYEKHKVYACEVTHQGLSSPVTKSFNRGEC
notes: Heterodimerized anti-glypican-3 IgG1 (He Ab); The mutation is in the GpH7-B3 chain only; also called He Ab with I336Q in GpH7-B3
B2: GpH7-A5/GpH7-B3 variant K334_20W/GpL16-k0 (antibody, human IgG1, kappa)
heavy 1: not shown
heavy 2: not shown
light: B1 light
notes: Heterodimerized anti-glypican-3 IgG1 (He Ab); The mutation is in the GpH7-B3 chain only; also called He Ab with K334W in GpH7-B3
B3: GpH7-A5/GpH7-B3 variant K334_15Y/GpL16-k0 (antibody, human IgG1, kappa)
heavy 1: not shown
heavy 2: not shown
light: B1 light
notes: Heterodimerized anti-glypican-3 IgG1 (He Ab); The mutation is in the GpH7-B3 chain only; also called He Ab with K334Y in GpH7-B3
B4: GpH7-A5/GpH7-B3 variant K334_14T/GpL16-k0 (antibody, human IgG1, kappa)
heavy 1: not shown
heavy 2: not shown
light: B1 light
notes: Heterodimerized anti-glypican-3 IgG1 (He Ab); The mutation is in the GpH7-B3 chain only; also called He Ab with K334T in GpH7-B3
B5: GpH7-A5/GpH7-B3 variant K334_19Q/GpL16-k0 (antibody, human IgG1, kappa)
heavy 1: not shown
heavy 2: not shown
light: B1 light
notes: Heterodimerized anti-glypican-3 IgG1 (He Ab); The mutation is in the GpH7-B3 chain only; also called He Ab with K334Q in GpH7-B3
B6: GpH7-A5/GpH7-B3 variant K334_13S/GpL16-k0 (antibody, human IgG1, kappa)
heavy 1: not shown
heavy 2: not shown
light: B1 light
notes: Heterodimerized anti-glypican-3 IgG1 (He Ab); The mutation is in the GpH7-B3 chain only; also called He Ab with K334S in GpH7-B3
B7: GpH7-A5/GpH7-B3 variant K334_10E/GpL16-k0 (antibody, human IgG1, kappa)
heavy 1: not shown
heavy 2: not shown
light: B1 light
notes: Heterodimerized anti-glypican-3 IgG1 (He Ab); The mutation is in the GpH7-B3 chain only; also called He Ab with K334E in GpH7-B3
B8: H240-Kn149/H240-Hl068/L73-k0 (antibody, human IgG1, kappa)
heavy 1: QDQLVQSGAEVKKPGASVKVSCKASGFNIKDTYIQWVRQAPGQGLEWMGRIDPLRKQTKYREKFEGRVTITADTSTNTAYMELSSLRSEDTAVYYCVRSGREFDYWGQGTLVTVSSASTKGPSVFPLAPSSKSTSGGTAALGCLVKDYFPEPVTVSWNSGALTSGVHTFPAVLQSSGLYSLSSVVTVPSSSLGTQTYICNVNHKPSNTKVDKKVEPKSCDKTHTCPPCPAPEYYWGPMVFLFPPKPKDTLMISRTPEVTCVVVDVSDEDPEVKFNWYVDGVEVHNAKTKPREEQYNATYRVVSVLTVLHQDWLNGKEYKCKVSNKDWPAPIELTISKAKGQPREPQVCTLPPSRDELTKNQVSLWCLVKGFYPSDIAVEWESNGQPENNYKTTPPVLDSDGSFFLYSKLTVDKSRWQQGNVFSCSVMHEALHNHYTQKSLSLSP
heavy 2: QDQLVQSGAEVKKPGASVKVSCKASGFNIKDTYIQWVRQAPGQGLEWMGRIDPLRKQTKYREKFEGRVTITADTSTNTAYMELSSLRSEDTAVYYCVRSGREFDYWGQGTLVTVSSASTKGPSVFPLAPSSKSTSGGTAALGCLVKDYFPEPVTVSWNSGALTSGVHTFPAVLQSSGLYSLSSVVTVPSSSLGTQTYICNVNHKPSNTKVDKKVEPKSCDKTHTCPPCPAPELLGGPSVFLFPPKPKDTLMISRTPEVTCVVVDVSHEEPEVKFNWYVDGVEVHNAKTKPREEQYNSTYRVVSVLTVLHQDWLNGKEYKCKVSNDALPKPIEETISKAKGQPREPQVYTLPPSRCELTKNQVSLSCAVKGFYPSDIAVEWESNGQPENNYKTTPPVLDSDGSFFLVSKLTVDKSRWQQGNVFSCSVMHEALHNHYTQKSLSLSP
light: DIQMTQSPSSLSASVGDRVTITCRASQDIHKYIAWYQQKPGQAPRLLIQYTSTLQPGVPSRFSGSGSGTDYTFTISSLQPEDIATYYCLQYEQLRTFGGGTKVEIKRTVAAPSVFIFPPSDEQLKSGTASVVCLLNNFYPREAKVQWKVDNALQSGNSQESVTEQDSKDSTYSLSSTLTLSKADYEKHKVYACEVTHQGLSSPVTKSFNRGEC
notes: Heterodimerized anti-epiregulin IgG1 antibody; L328W and K334L in H240-Kn120
B9: GpH7-A5/GpH7-B3 variant (H268D)/GpL16-k0 (antibody, human IgG1, kappa)
heavy 1: not shown
heavy 2: not shown
light: B1 light
notes: also called He Ab H268_09D
B10: GpH7-A5/GpH7-B3 variant (K326I)/GpL16-k0 (antibody, human IgG1, kappa)
heavy 1: not shown
heavy 2: not shown
light: B1 light
notes: also called He Ab K326_07I

molecular target: T5, FcγRIIIa extracellular domain with C-terminal His tag (human, UniProt P08637 17-208); assay: SPR (Biacore); He/Con for FcγRIIIa divided by He/Con for FcγRIIb
T5 construct: extracellular domain; also called FcgRIIIa; 3a; not shown: His tag at the C terminus
Experimental: (§1) The heterodimerized antibodies He Abs in which one of the H chains was introduced with an alteration were assayed for their binding activities to each activating FcγR and inhibitory FcγR according to the method described in Example 4. […] The activating FcγRs in FIGS. 26, 27, 28, and 29 are FcγRIa, FcγRIIa (R), FcγRIIa (H), and FcγRIIIa, respectively.
(§2) Analysis of interaction between objective antibody and the FcγR was carried out using Biacore T100 (GE Healthcare). HBS-EP+ (GE Healthcare) was used as the running buffer, and the measurement temperature was set to 25° C. Chips produced by immobilizing the antigen peptide by the amine coupling method to a Series S Sencor Chip CM5 (GE Healthcare), or alternatively, chips produced by allowing preliminarily biotinylated antigen peptides to interact with and immobilize onto a Series S Sensor Chip SA (certified) (GE Healthcare) were used. Antibodies of interest were captured onto an antigen peptide-immobilized chip, and allowed to interact to each FcγR diluted with running buffer. To regenerate and repeatedly use the chip, the antibodies captured on the chip were washed off by reacting 10 mM glycine-HCl, pH 1.5.

T5 sequence (P08637 17-208): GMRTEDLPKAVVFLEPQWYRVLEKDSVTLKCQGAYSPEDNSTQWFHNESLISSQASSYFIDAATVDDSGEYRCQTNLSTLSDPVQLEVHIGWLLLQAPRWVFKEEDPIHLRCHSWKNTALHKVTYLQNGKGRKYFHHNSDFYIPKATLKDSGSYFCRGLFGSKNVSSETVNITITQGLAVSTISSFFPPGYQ

He_3a/2b (IIIa/IIb) [ratio] | Binder
1.59 | B1
1.23 | B2
1.29 | B3
1.23 | B4
1.25 | B5
1.31 | B6
1.58 | B7

molecular target: T6, FcgRIa (human, UniProt P12314 16-292); assay: SPR (Biacore); KD of H240-Kn120/H240-Hl068/L73-k0 divided by KD of the sample
T6 construct: extracellular domain; Soluble extracellular domain expressed in FreeStyle293 cells; also called FcγRIa; FcγRI; not shown: His tag attached to the C terminus
Experimental: (§3) Analysis of interaction between objective antibody and the FcγR was carried out using Biacore T100 (GE Healthcare), Biacore T200, Biacore A100, and Biacore 4000. HBS-EP+ (GE Healthcare) was used as the running buffer, and the measurement temperature was set to 25° C. Chips produced by immobilizing the antigen peptide by the amine coupling method to a Series S sensor Chip CM5 (GE Healthcare), chips produced by allowing preliminarily biotinylated antigen peptides to interact with and immobilize onto a Series S Sensor Chip SA (certified) (GE Healthcare), chips produced by immobilizing Protein L (ACTIGEN, BioVision) to Series S Sencor Chip CM5 (GE Healthcare), or chips produced by immobilizing Protein A/G (Thermo Scientific) to Series S Sencor Chip CM5 (GE Healthcare) were used. Antibodies of interest were captured onto these chips, and allowed to interact to each FcγR diluted with running buffer. To regenerate and repeatedly use the chip, the antibodies captured onto the chip were washed off by reacting 10 mM glycine-HCl, pH 1.5.

T6 sequence (P12314 16-292): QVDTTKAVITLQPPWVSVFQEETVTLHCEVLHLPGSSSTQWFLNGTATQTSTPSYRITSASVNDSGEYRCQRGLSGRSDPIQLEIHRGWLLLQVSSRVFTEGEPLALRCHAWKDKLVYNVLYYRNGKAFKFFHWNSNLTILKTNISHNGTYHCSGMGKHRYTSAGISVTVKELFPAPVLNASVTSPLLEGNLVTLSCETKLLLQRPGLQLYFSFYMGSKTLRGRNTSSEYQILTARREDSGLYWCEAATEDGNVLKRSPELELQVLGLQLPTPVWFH

relative KD | Binder
0.4 | B8

molecular target: T1, FcgRIIaR; assay: as above
Experimental: as §3

relative KD | Binder
1.1 | B8

molecular target: T2, FcgRIIaH; assay: as above
Experimental: as §3

relative KD | Binder
1.6 | B8

molecular target: T3, FcgRIIb; assay: as above
Experimental: as §3

relative KD | Binder
1 | B8

molecular target: T7, FcgRIIIaV (human, UniProt P08637 17-208); assay: as above
T7 construct: extracellular domain; Allotype V158; also called FcγRIIIa V; not shown: His tag attached to the C terminus
Experimental: as §3

T7 sequence (P08637 17-208 F176V limits assumed): as the sequence (P08637 17-208) above, with F160V counted along it

relative KD | Binder
1.1 | B8

molecular target: T4, FcγRIIb extracellular domain with …; assay: SPR (Biacore), antibody captured on antigen-peptide chip, FcγR as analyte; relative binding amount
Experimental: as §1, §2

He/Con_2b (IIb binding) | Binder
58.2 relative, GpH7-A5/GpH7-B3/GpL16-k0 = 100 | B1
104 relative, GpH7-A5/GpH7-B3/GpL16-k0 = 100 | B2
109 relative, GpH7-A5/GpH7-B3/GpL16-k0 = 100 | B3
115 relative, GpH7-A5/GpH7-B3/GpL16-k0 = 100 | B4
109 relative, GpH7-A5/GpH7-B3/GpL16-k0 = 100 | B5
111 relative, GpH7-A5/GpH7-B3/GpL16-k0 = 100 | B6
114 relative, GpH7-A5/GpH7-B3/GpL16-k0 = 100 | B7

molecular target: T5, FcγRIIIa extracellular domain with …; assay: as above
Experimental: as §1, §2

He/Con_3a (IIIa binding) | Binder
92.5 relative, GpH7-A5/GpH7-B3/GpL16-k0 = 100 | B1
128 relative, GpH7-A5/GpH7-B3/GpL16-k0 = 100 | B2
141 relative, GpH7-A5/GpH7-B3/GpL16-k0 = 100 | B3
141 relative, GpH7-A5/GpH7-B3/GpL16-k0 = 100 | B4
136 relative, GpH7-A5/GpH7-B3/GpL16-k0 = 100 | B5
145 relative, GpH7-A5/GpH7-B3/GpL16-k0 = 100 | B6
181 relative, GpH7-A5/GpH7-B3/GpL16-k0 = 100 | B7

molecular target: T8, FcgRIIIa F (FcγRIIIa type F) extracellular domain with C-terminal His tag (human, UniProt P08637 17-208); assay: SPR (Biacore); relative binding activity of the heterodimerized antibody with the alteration in one H chain
T8 construct: extracellular domain; also called FcγRIIIa F; 3aF; not shown: His tag attached to the C terminus
T8 sequence (P08637 17-208): as the sequence (P08637 17-208) above

He/Con_3aF | Binder
195 % of GpH7-A5/GpH7-B3/GpL16-k0 (= 100) | B9
153 % of GpH7-A5/GpH7-B3/GpL16-k0 (= 100) | B10
